Columns and labels:
[1] = test system: biotinylated Caspase 3 peptide substrate with end-labeled fluorescent dye Cy5
[2] = test system: PNA-Caspase 3 dual-labeled peptide chimera: PNA-Linker-Cys His His His His His His Asp Glu Val Asp Ala Lys-(C18-spacer)-Cy3

Row | Substance | percentage of the residual assay intensity ratio relative to the negative control (PNA-peptide chimera II) [%] | percentage of the residual assay intensity ratio relative to the negative control (PNA-peptide chimera III) [%] | percentage of the residual assay intensity ratio relative to the negative control (PNA-peptide chimera I) [%] | Cy5 signal intensity at 1000 ms integration of uncut substrate (Caspase 3 at 8 to 0 microgram/ml) [1] | fluorescent Cy3/Cy5 signal ratio (Caspase 3 at 0 to 4 ng/µl) [2]
1 | Caspase 8 | 69.41 | 59.89 | 73.77 |  | 
2 | Caspase 6 | 41.18 | 79.08 | 91.80 |  | 
3 | Caspase 3 | 82.35 | 112.03 | 53.48 | The Cy5 signal intensity at 1000 ms integration increased from about 2600 to 5200 units for a decreasing Caspase 3 concentration ranging from 8 to 0 microgram/ml | the fluorescent Cy3/Cy5 signal ratio decreases from approximately 1 to 0.6

— US20040038217
